Reference: US20020143164A1, “Ras activator nucleic acid molecules, polypeptides and methods of use” (priority 1999, published 2002)

How the values were obtained:
Ras [1] = experiment: In vitro pull-down of GRF4 with GST-Ras of different nucleotide-bound states; type: binding; settings: lysates of 293T cells with Flag-tagged GRF4, GST-Ras beads
From the text: Beads were washed and resolved on SDS-PAGE and subsequently immunoblofted with anti-Flag antibodies to detect Flag-tagged GRF4. […] However, it bound to Ras differentially, depending on the nucleotide-bound states of Ras.

GRF4-cNMP-BD = biological target: T1, GRF4-cNMP-BD (Homo sapiens, UniProt Q9Y4G8); experiment: cAMP-agarose binding assay; settings: cAMP agarose beads, anti GRF4 immunoblot
T1 construct: The GST-GRF4-cNMP-BD (residue 101-303); made in house
T1 sequence (Q9Y4G8 101-303): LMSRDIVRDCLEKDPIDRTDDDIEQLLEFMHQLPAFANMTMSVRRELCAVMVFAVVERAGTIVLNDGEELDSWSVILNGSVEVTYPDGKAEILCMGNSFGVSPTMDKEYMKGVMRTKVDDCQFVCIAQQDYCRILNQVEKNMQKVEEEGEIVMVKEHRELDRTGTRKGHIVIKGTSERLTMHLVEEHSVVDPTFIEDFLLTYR
Procedure: Right and left panels in (b) represent two separate experiments.
Following extensive washes in HNTG (20 mM Hepes, pH 7.5, 150 mM NaCl, 0.1% Triton ×100, 10% Glycerol) proteins were eluted off beads with sample buffer, separated on SDS-PAGE and immunoblotted with either anti GST antibodies for the in vitro binding experiments, or with anti GRF4 antibodies for the pull down experiments.

Ras [2] = experiment: In vitro GEF assay (32P-α-GTP binding to Ras); type: biochemical
Procedure: Full length (GRF4) or CDC25-deleted (ΔCDC25) GRF4, or GRF2, each Flag-tagged, were immunoprecipitated from transfected Hek-293T cells using anti Flag antibodies. Equal amounts of immunoprecipitates were washed with GEF lysis buffer, equilibrated with GEF assay buffer and incubated with 32P-α-GTP (diluted in cold GTP) plus 100 ng of Ras for 30 min. Bound and unbound radiolabelled GTP were then separated by filtration, and the amount of bound GTP determined by scintillation counting, as detailed in the Method section. Fold Ras activation was compared to the activation of Ras in the absence of GRFs (which was set to 1).
GRF4 has a RasGRF(GEF) activity/function. To show its GEF activity, we performed in-vitro GEF assays. Briefly, GST-Ras was added alone (tubes 1 and 2) or along with GST-CDC25, or immunoprecipitated full-length of GRF4 (tubes 3 and 4). All tubes contained assay mixture including cold GTP and P32 alpha GTP. The exchange reactions were stopped at the indicated times. The stopped reaction mixtures were passed through nitrocellulose filters which were then washed with stop buffer to separate bound and unbound nucleotides. Filters were dried and then quantified by scintillation counting to determine bound CPM. The labeled nucleotides trapped on the washed filters were assumed to be Ras-associated. The difference in bound CPM over 30 minute period was determined for reactions where GST-Ras was added alone (it is the difference in bound CPM between tubes 1 and 2) and where GST-Ras was added with a GEF (it is the difference in bound CPM between tubes 3 and 4).

Rat 2 fibroblasts = experiment: Transformation assay (foci formation); type: cell-based; settings: transient transfection, cultured three weeks
Procedure: Transformation assays were performed using Rat 2 fibroblasts, a suitable cell type for this assay. Rat 2 cells were transiently transfected with empty vector, GRF4 construct, or mutant RasV12 construct (a transforming form of Ras used as a positive control). After transfection, cells were cultured over a period of three weeks with routine changes of media, and were routinely examined for morphology changes under a light microscope.

Ras [3] = experiment: Ras activation assay in living cells, GRF4 and deletion mutants expressed in HEK-293T cells; type: cell-based, human; settings: HEK-293T cells, no cNMP stimulation
Procedure: HEK-293T cells were transfected with vector alone, GRF4 (WT), GRF4 lacking its cNMP-BD (ΔcNMP-BD) or its CDC25 domain (ΔCDC25), and then treated (or not) with 8-Br-cAMP. Cell lysates were then incubated with GST-Raf1-RBD to precipitate active Ras, and immunobloited with anti Ras antibodies as above (upper panel). Lower panels are controls for total endogenous Ras and transfected GRF4 or its mutants.
Flag, HA or myc tags was added to the N-terminus of full length GRF4 using PCR, and subcloned into the mammalian expression vector pCMV5 (Invitrogen). Mutants GRF4 with deletion of the CDC25 domain (residue 711-1007, GRF4DCDC25 or DCDC25 for short), the cNMP-BD (residue 134-254, DcNMP-BD), the PLPF motif in the PDZ domain (residue 396-399, -PLPF), or bearing mutations in the PDZ-binding motif (SAV to AAA), were generated using PCR. The GST-GRF4-cNMP-BD (residue 101-303) and GST-Carboxy-terminus (residue 1348-1499) were PCR-generated and cloned into pGEX-2T ( Pharmacia). The latter construct was used to generate a fusion protein (GST-GRF4C terminus) which was used to immunize rabbits for the generation of polyclonal anti GRF4 antibodies.
HEK-293T cells were transfected as above, serum starved overnight and then subjected to various treatments, as described in the text. […] GTP in the lysates was determined using activation specific probes as described. Briefly, to determined the levels of active Ras (Ras-GTP) in cell, sepharose-bound GST fusion protein of the Ras-binding domain (RBD) of Raf-1 (GST-Raf1-RBD; Upstate Biotechnology Inc.) was used to precipitate Ras-GTP from cell lysates, and the amount of Ras-GTP determined by immunoblotting with anti Ras antibodies (Quality Biotech). Similarly, to determine the level of Rap1-GTP in cell lysates, sepharose-bound GST fusion proteins of the Rap1-binding domain of RaIGDS (GST-RaIGDS-RBD) were used to precipitate Rap1-GTP, which was then detected on a Western blot using anti-Rap1 antibodies (Transduction Lab).

Rap1 = Rap1 activation assay in living cells (GST-RalGDS-RBD pull-down); type: cell-based, human; settings: HEK-293T cells, via CDC25 domain
Procedure: HEK-293T cells were transfected as above, serum starved overnight and then subjected to various treatments, as described in the text. Cells were lysed with lysis buffer (25 mM Hepes, pH 7.5, 150 mM NaCl, 1% NP-40, 0.25% Na deoxycholate, 10% glycerol, 25 mM NaF, 10 mM MgCl2, 1 mM EDTA, 1 mM NaVO4, […]) and the level of Ras.GTP or Rap. GTP in the lysates was determined using activation specific probes as described. Briefly, to determined the levels of active Ras (Ras-GTP) in cell, sepharose-bound GST fusion protein of the Ras-binding domain (RBD) of Raf-1 (GST-Raf1-RBD; Upstate Biotechnology Inc.) was used to precipitate Ras-GTP from cell lysates, and the amount of Ras-GTP determined by immunoblotting with anti Ras antibodies (Quality Biotech). Similarly, to determine the level of Rap1-GTP in cell lysates, sepharose-bound GST fusion proteins of the Rap1-binding domain of RaIGDS (GST-RaIGDS-RBD) were used to precipitate Rap1-GTP, which was then detected on a Western blot using anti-Rap1 antibodies (Transduction Lab).

Binding to EDTA-treated Ras (nucleotide-free) (Ras [1]): bound strongly | Binding to Ras-GDP (Ras [1]): bound weakly | Binding to Ras-GTP (Ras [1]): bound strongly | Precipitation by immobilized cAMP from lysates of expressing HEK-293T cells (GRF4-cNMP-BD): able to precipitate | In vitro GEF activity on Ras (Ras [2]): active on Ras | Fold Ras activation in vitro (activation without GRFs set to 1) (Ras [2]; immunoprecipitated Flag-tagged protein, 100 ng Ras, 30 min): ~2.9 fold
B1: GRF4: Ras guanine nucleotide exchange factor polypeptide, SEQ ID NO: 2, 1499 amino acids (protein, listed as Homo sapiens)
chain: MKPLAIPANHGVMGQQEKHSLPADFTKLHLTDSLHPQVTHVSSSHSGCSITSDSGSSSLSDIYQATESEAGDMDLSGLPETAVDSEDDDDEEDIERASDPLMSRDIVRDCLEKDPIDRTDDDIEQLLEFMHQLPAFANMTMSVRRELCAVMVFAVVERAGTIVLNDGEELDSWSVILNGSVEVTYPDGKAEILCMGNSFGVSPTMDKEYMKGVMRTKVDDCQFVCIAQQDYCRILNQVEKNMQKVEEEGEIVMVKEHRELDRTGTRKGHIVIKGTSERLTMHLVEEHSVVDPTFIEDFLLTYRTFLSSPMEVGKKLLEWFNDPSLRDKVTRVVLLWVNNHFNDFEGDPAMTRFLEEFENNLEREKMGGHLRLLNIACAAKAKRRLMTLTKPSREAPLPFILLGGSEKGFGIFVDSVDSGSKATEAGLKRGDQILEVNGQNFENIQLSKAMEILRNNTHLSITVKTNLFVFKELLTRLSEEKRNGAPHLPKIGDIKKASRYSIPDLAVDVEQVIGLEKVNKKSKANTVGGRNKLKKILDKTRISILPQKPYNDIGIGQSQDDSIVGLRQTKHIPTALPVSGTLSSSNPDLLQSHHRILDFSATPDLPDQVLRVFKADQQSRYIMISKDTTAKEVVIQAIREFAVTATPDQYSLCEVSVTPEGVIKQRRLPDQLSKLADRIQLSGRYYLKNNMETETLCSDEDAQELLRESQISLLQLSTVEVATQLSMRNFELFRNIEPTEYIDDLFKLRSKTSCANLKRFEEVINQETFWVASEILRETNQLKRMKIIKHFIKIALHCRECKNFNSMFAIISGLNLAPVARLRTTWEKLPNKYEKLFQDLQDLFDPSRNMAKYRNVLNSQNLQPPIIPLFPVIKKDLTFLHEGNDSKVDGLVNFEKLRMIAKEIRHVGRMASVNMDPALMFRTRKKKWRSLGSLSQGSTNATVLDVAQTGGHKKRVRRSSFLNAKKLYEDAQMARKVKQYLSNLELEMDEESLQTLSLQCEPATNTLPKNPGDKKPVKSETSPVAPRAGSQQKAQSLPQPQQQPPPAHKINQGLQVPAVSLYPSRKKVPVKDLPPFGINSPQALKKILSLSEEGSLERHKKQAEDTISNASSQLSSPPTSPQSSPRKGYTLAPSGTVDNFSDSGHSEISSRSSIVSNSSFDSVPVSLHDERRQRHSVSIVETNLGMGRMERRTMIEPDQYSLGSYAPMSEGRGLYATATVISSPSTEELSQDQGDRASLDAADSGRGSWTSCSSGSHDNIQTIQHQRSWETLPFGHTHFDYSGDPAGLWASSSHMDQIMFSDHSTKYNRQNQSRESLEQAQSRASWASSTGYWGEDSEGDTGTIKRRGGKDVSIEAESSSLTSVTTEETKPVPMPAHIAVASSTTKGLIARKEGRYREPPPTPPGYIGIPITDFPEGHSHPARKPPDYNVALQRSRMVARSSDTAGPSSVQQPHGHPTSSRPVNKPQWHKPNESDPRLAPYQSQGFSTEEDEDEQVSAV
Foci formation / transformed phenotype of transfected cells (Rat 2 fibroblasts): induced foci formation | Activation of endogenous Ras by heterologous expression (Ras [3]): weak activation | Activation of Rap1 in cells (Rap1): mediates activation of Rap1
